Laboratory results from patent US7666989B2 (priority 2003, dated 2010).
Several values for one entry are separate records, joined by “and”; a condition that tells them apart may be missing. Equal entries are not always repeated. Entries after “also recorded” stand apart in the source; their conditions may differ. Where two headings read alike, the source gives them in different places. Marks after values point to notes of the source that are not given here.

How the values were obtained:
[1] = system: PC-3 (human pancreas cancer cell); assay: MTT cytotoxicity, PC-3; assay type: cell-based; conditions: 4 days
Text: (§1) Reagents: RPMI1640 is from GIBCO; MTT is from Bebco. Fetal bovine serum is purchased from Hangzhou SiJiQing Bioengineering Material Co. Ltd. (P. R. China).
(§2) Cell lines: COLO 205 (human colon cancer cell), NCI-H460 (human lung cancer cell), RPMI 8226 (human multiple myeloma cell), U251 (human brain glioma cell) are from ATCC, USA. HL-60 (human promyelocytic leukemia cell), MDA-MB-231, MDA-MB-435 (human breast cancer cell), SCLC (human small-cell lung cancer cell), H125 (human lung cancer cell) and PC-3 (human […] cancer cell).
(§3) The well-grown tumor cells were collected to prepare a cell suspension (1×10^4/ml) with RPMI 1640 medium containing 10% fetal bovine serum. The cell suspension was inoculated into a 96-well plate, 100 μL (containing 1000 tumor cells) per well. The plate was cultured in a 5% CO2 incubator at 37° C. for 24 hours, followed by addition of medicament.
(§4) A blank control and a positive control using 5-fluorouracil or adriamycin are employed in the experiment. […]
(§5) The supernatant was discarded. […] After gently shaking, the OD values were measured by a BIORAD 550 enzyme analyzer, with the detection wavelength being 540 nm and the reference wavelength being 450 nm.
(§6) Dose-response curves were generated by plotting with the cell inhibition rates and different concentrations of medicament, and the half inhibitory concentrations (IC50) were calculated.

[2] = system: COLO 205 (human colon cancer cell); assay: MTT cytotoxicity, COLO 205; assay type: cell-based; conditions: 4 days
Text: as §1, §2, §3, §4, §5, §6

[3] = system: MDA-MB-435 (human breast cancer cell); assay: MTT cytotoxicity, MDA-MB-435; assay type: cell-based; conditions: 4 days
Text: as §1, §2, §3, §4, §5, §6

[4] = system: human lung cancer NCI-H460; assay: Growth of human lung cancer NCI-H460 xenograft in nude mice; assay type: in vivo, BALB/c-nu nude mice; conditions: ten injections; for Body Weight (g) Start / Tumor volume (mm^3) Start: baseline; for Inhibition rate (%): by tumor weight
Experimental: The animals were then grouped based their tumor sizes. Each group included seven to eight animals.
(§7) The evaluation standard for efficacy:
(§8) T/C (%)>60 is ineffective;
One additional injection was given at 80 mg/kg two weeks later. […] The treatment contained a total of ten injections.

[5] = system: H125 (human lung cancer cell); assay: MTT cytotoxicity, H125; assay type: cell-based; conditions: 4 days
Text: as §1, §2, §3, §4, §5, §6

cancer cells = assay: Induction of apoptosis of cancer cells compared with wild type TRAIL; assay type: cell-based; conditions: CPT versus wild type TRAIL
[6] = system: SCLC (human small-cell lung cancer cell); assay: MTT cytotoxicity, SCLC; assay type: cell-based
Text: as §1, §2, §3
A blank control and a positive control using 5-fluorouracil or adriamycin are employed in the experiment. The CPT samples have five concentrations, three parallel wells for each concentration. The cells were cultured in an incubator with 5% CO2 at 37° C. for 4 days. Then the culture medium was removed and 100 μL MTT solution (0.4 mg/ml in RPMI 1640) was added to each well. The plate was incubated at 37° C. for four additional hours.
The supernatant was discarded. 150 μl DMSO was added into each well in order to solubilize Fomazan granulates. After gently shaking, the OD values were measured by a BIORAD 550 enzyme analyzer, with the detection wavelength being 540 nm and the reference wavelength being 450 nm.
as §6

[7] = system: RPMI 8226 (human multiple myeloma cell); assay: MTT cytotoxicity, RPMI 8226; assay type: cell-based; conditions: 4 days
Text: as §1, §2, §3, §4, §5, §6

[8] = system: human colon cancer COLO 205; conditions: COLO 205 xenograft; for Body Weight (g) End / RTV / Tumor volume (mm^3) End / Tumor weight / Body Weight (g) Start / Tumor volume (mm^3) Start / Inhibition rate (%): 15 injections; for Body Weight (g) Start / Tumor volume (mm^3) Start: baseline; for Inhibition rate (%): by tumor weight
Text: In this example, the animals used were BALB/c-nu nude mice, 6-8 weeks old. For each experiment, all animals were of the same sex.
Tumor cell lines: human brain glioma U251, human lung cancer cell line NCI-H460, human colon cancer cell line COLO205 were inoculated from in vitro culture into nude mice subcutaneously, the tumors were subcultured and kept.
Experimental Procedures: well-grown nude mice carrying well-grown tumors were selected and sacrificed by disjointing neck vertebra. The tumors were removed aseptically and were cut into pieces having a diameter of 2-3 mm by a scalpel. The pieces were inoculated into the axilla of nude mice subcutaneously by a needle. […] The length and width of tumors were measured by a vernier caliper. The animals were then grouped based their tumor sizes. Each group included seven to eight animals.
The length, width of the tumor and the body weight of the mice were measured twice per week. The tumor volume (TV) and relative tumor volume (RTV) were calculated. A graph indicating the changes of tumor size was plotted. At the end of this experiment, the tumors were taken out and weighed after the mice were sacrificed, and the inhibition rates of the medicament on tumor growth were calculated.
The formula for calculating tumor volume (TV) is: length×width^2÷2.
The formula for calculating relative tumor volume (RTV) is: Vt/Vo (wherein Vo is the TV value measured when the administration is started, Vt is the TV value measured after that).
T-test was used to determine the statistical difference of tumor weights, tumor volumes and RTV etc. between different groups of animal. The index used for evaluating the anti-tumor activity is the relative tumor growth rate T/C (%), the formula for which is: […]
as §7, §8
T/C (%)≦60 and P<0.05 after statistical analysis is effective.
Injectable hydroxycamptothecin (trade name: Xi Su, Wuhan Lishizhen Pharmaceuticals Inc., Huangshi Lishizhen Pharmaceuticals Group, P. R. China) was used as positive control, administered by intraperitoneal injection at the dose of 1 mg/kg, once per day. The administration was terminated after 15 consecutive days of administration. […] A single administration of 80 mg/kg hydroxycamptothecin was further given after two weeks. CPT was given to three treatment groups at the doses of 1.7 mg/kg, 5.0 mg/kg, 15.0 mg/kg respectively by intraperitoneal injection, once per day. The treatment contained a total of 15 injections.

[9] = CPT 1.7 mg/kg i.p. once per day
[10] = CPT 5.0 mg/kg i.p. once per day

B1: CPT: human recombinant circularly permuted TRAIL (CPT), which consists of 166 amino acid residues; SEQ ID No:2 (protein)
chain: TLSSPNSKNEKALGRKINSWESSRSGHSFLSNLHLRNGELVIHEKGFYYIYSQTYFRFQEEIKENTKNDKQMVQYIYKYTSYPDPILLMKSARNSCWSKDAEYGLYSIYQGGIFELKENDRIFVSVTNEHLIDMDHEASFFGAFLVGGGGGGVAAHITGTRGRSNT
modifications: Synthetically generated peptide
Q: B1 was tested. Which “IC50” value [1] did it give?
A: Its value is 0.067 ± 0.002 µg/mL.

Q: What about the “IC50” value [2] of the same molecule?
A: The value was 0.006 ± 0 µg/mL.

Q: What about the “IC50” value [3] of the same molecule?
A: Its value is 0.008 ± 0.002 µg/mL.

Q: What about the “Body Weight (g) End” value [4, 9] of the same molecule?
A: The value was 19.8 ± 1.6 g.

Q: And the RTV [4, 9]?
A: Its RTV is 2.27 ± 1.13.

Q: And the “T/C (%)” value [4, 9]?
A: Its value is 38.0%.

Q: And the “Tumor volume (mm^3) End” value [4, 9]?
A: Its value is 706 ± 170* mm^3.

Q: And the “Tumor weight” value [4, 9]?
A: Its value is 0.77 ± 0.19 g.

Q: And the “Body Weight (g) Start” value [4, 9]?
A: The value was 20.1 ± 1.9 g.

Q: And the “Tumor volume (mm^3) Start” value [4, 9]?
A: Its value is 200 ± 103 mm^3.

Q: What about the “Inhibition rate (%)” value [4, 9] of the same molecule?
A: The value was 52.2%.

Q: What about the “Body Weight (g) End” value [4, 10] of the same molecule?
A: The value was 18.5 ± 2.5 g.

Q: And the RTV [4, 10]?
A: Its RTV is 1.49 ± 0.76.

Q: And the “Tumor volume (mm^3) End” value [4, 10]?
A: The value was 469 ± 359** mm^3.

Q: And the “Tumor weight” value [4, 10]?
A: The value was 0.41 ± 0.28 g.

Q: What about the “Body Weight (g) Start” value [4, 10] of the same molecule?
A: The value was 20.4 ± 1.9 g.

Q: And the “Tumor volume (mm^3) Start” value [4, 10]?
A: The value was 187 ± 51 mm^3.

Q: And the “Inhibition rate (%)” value [4, 10]?
A: Its value is 74.5%.

Q: And the “Body Weight (g) End” value ([4]; CPT 15 mg/kg i.p. once per day)?
A: Its value is 21.1 ± 1.7 g.

Q: What about the RTV ([4]; CPT 15 mg/kg i.p. once per day) of the same molecule?
A: The RTV was 0.79 ± 0.25.

Q: And the “Tumor volume (mm^3) End” value ([4]; CPT 15 mg/kg i.p. once per day)?
A: The value was 189 ± 102** mm^3.

Q: And the “Tumor weight” value ([4]; CPT 15 mg/kg i.p. once per day)?
A: Its value is 0.21 ± 0.10 g.

Q: What about the “Body Weight (g) Start” value ([4]; CPT 15 mg/kg i.p. once per day) of the same molecule?
A: The value was 20.9 ± 1.1 g.

Q: And the “Tumor volume (mm^3) Start” value ([4]; CPT 15 mg/kg i.p. once per day)?
A: The value was 192 ± 63 mm^3.

Q: And the “Inhibition rate (%)” value ([4]; CPT 15 mg/kg i.p. once per day)?
A: The value was 87.0% and 88.8%.

Q: And the “IC50” value [5]?
A: The value was 0.085 ± 0.006 µg/mL.

Q: What about the “activity to induce apoptosis of cancer cells relative to wild type TRAIL” value (cancer cells) of the same molecule?
A: The value was “six to eleven times as strong”.

Q: And the “IC50” value ([6]; 4 days)?
A: The value was 10 ± 0 µg/mL.

Q: What about the “inhibitory effect on the growth of SCLC cell” value ([6]; in words) of the same molecule?
A: The value was “some inhibitory effect; also recorded: some inhibition effect”.

Q: And the “IC50” value [7]?
A: The value was 0.824 ± 0.093 µg/mL.

Q: What about the “Body Weight (g) End” value [8, 9] of the same molecule?
A: The value was 20.6 ± 3.0 g.

Q: What about the RTV [8, 9] of the same molecule?
A: The RTV was 1.62 ± 0.62.

Q: What about the “Tumor volume (mm^3) End” value [8, 9] of the same molecule?
A: Its value is 582 ± 408** mm^3.

Q: What about the “Tumor weight” value [8, 9] of the same molecule?
A: Its value is 0.40 ± 0.33 g.

Q: And the “Body Weight (g) Start” value [8, 9]?
A: Its value is 20.6 ± 1.1 g.

Q: And the “Tumor volume (mm^3) Start” value [8, 9]?
A: Its value is 205 ± 47 mm^3.

Q: What about the “Inhibition rate (%)” value [8, 9] of the same molecule?
A: The value was 79.6%.

Q: What about the “Body Weight (g) End” value [8, 10] of the same molecule?
A: The value was 21.4 ± 1.2 g.

Q: And the RTV [8, 10]?
A: The RTV was 0.91 ± 0.35.

Q: What about the “Tumor volume (mm^3) End” value [8, 10] of the same molecule?
A: The value was 314 ± 175** mm^3.

Q: And the “Tumor weight” value [8, 10]?
A: The value was 0.18 ± 0.15 g.

Q: And the “Body Weight (g) Start” value [8, 10]?
A: The value was 20.2 ± 0.8 g.

Q: And the “Tumor volume (mm^3) Start” value [8, 10]?
A: The value was 180 ± 63 mm^3.

Q: And the “Inhibition rate (%)” value [8, 10]?
A: Its value is 90.8% and 90.9%.

Q: And the “Body Weight (g) End” value ([8]; CPT 15 mg/kg i.p. once per day)?
A: The value was 21.1 ± 2.4 g.

Q: What about the RTV ([8]; CPT 15 mg/kg i.p. once per day) of the same molecule?
A: The RTV was 0.33 ± 0.27.

Q: What about the “Tumor volume (mm^3) End” value ([8]; CPT 15 mg/kg i.p. once per day) of the same molecule?
A: Its value is 52 ± 53** mm^3.

Q: And the “Tumor weight” value ([8]; CPT 15 mg/kg i.p. once per day)?
A: The value was 0.05 ± 0.05 g.

Q: And the “Body Weight (g) Start” value ([8]; CPT 15 mg/kg i.p. once per day)?
A: The value was 20.0 ± 0.5 g.

Q: What about the “Tumor volume (mm^3) Start” value ([8]; CPT 15 mg/kg i.p. once per day) of the same molecule?
A: The value was 192 ± 81 mm^3.

Q: What about the “Inhibition rate (%)” value ([8]; CPT 15 mg/kg i.p. once per day) of the same molecule?
A: The value was 97.4% and 97.8%.

Q: What about the “fraction of animals in which no tumor was found” value ([8]; high-dose CPT (15 mg/kg/day, 15 injections), four weeks after the administration was stopped) of the same molecule?
A: The value was “⅓”.
